According to IntAct's records for PubMed 31262713:

B1: Protein Niban 2 (Homo sapiens), Q96TA1 (parent)
chain: MGDVLSTHLDDARRQHIAEKTGKILTEFLQFYEDQYGVALFNSMRHEIEGTGLPQAQLLWRKVPLDERIVFSGNLFQHQEDSKKWRNRFSLVPHNYGLVLYENKAAYERQVPPRAVINSAGYKILTSVDQYLELIGNSLPGTTAKSGSAPILKCPTQFPLILWHPYARHYYFCMMTEAEQDKWQAVLQDCIRHCNNGIPEDSKVEGPAFTDAIRMYRQSKELYGTWEMLCGNEVQILSNLVMEELGPELKAELGPRLKGKPQERQRQWIQISDAVYHMVYEQAKARFEEVLSKVQQVQPAMQAVIRTDMDQIITSKEHLASKIRAFILPKAEVCVRNHVQPYIPSILEALMVPTSQGFTEVRDVFFKEVTDMNLNVINEGGIDKLGEYMEKLSRLAYHPLKMQSCYEKMESLRLDGLQQRFDVSSTSVFKQRAQIHMREQMDNAVYTFETLLHQELGKGPTKEELCKSIQRVLERVLKKYDYDSSSVRKRFFREALLQISIPFLLKKLAPTCKSELPRFQELIFEDFARFILVENTYEEVVLQTVMKDILQAVKEAAVQRKHNLYRDSMVMHNSDPNLHLLAEGAPIDWGEEYSNSGGGGSPSPSTPESATLSEKRRRAKQVVSVVQDEEVGLPFEASPESPPPASPDGVTEIRGLLAQGLRPESPPPAGPLLNGAPAGESPQPKAAPEASSPPASPLQHLLPGKAVDLGPPKPSDQETGEQVSSPSSHPALHTTTEDSAGVQTEF

Key:
[1] = variants of: B1; settings: with keap1_human KEAP1, Q14145
Sequence of keap1_human KEAP1, Q14145 (Q14145 whole entry): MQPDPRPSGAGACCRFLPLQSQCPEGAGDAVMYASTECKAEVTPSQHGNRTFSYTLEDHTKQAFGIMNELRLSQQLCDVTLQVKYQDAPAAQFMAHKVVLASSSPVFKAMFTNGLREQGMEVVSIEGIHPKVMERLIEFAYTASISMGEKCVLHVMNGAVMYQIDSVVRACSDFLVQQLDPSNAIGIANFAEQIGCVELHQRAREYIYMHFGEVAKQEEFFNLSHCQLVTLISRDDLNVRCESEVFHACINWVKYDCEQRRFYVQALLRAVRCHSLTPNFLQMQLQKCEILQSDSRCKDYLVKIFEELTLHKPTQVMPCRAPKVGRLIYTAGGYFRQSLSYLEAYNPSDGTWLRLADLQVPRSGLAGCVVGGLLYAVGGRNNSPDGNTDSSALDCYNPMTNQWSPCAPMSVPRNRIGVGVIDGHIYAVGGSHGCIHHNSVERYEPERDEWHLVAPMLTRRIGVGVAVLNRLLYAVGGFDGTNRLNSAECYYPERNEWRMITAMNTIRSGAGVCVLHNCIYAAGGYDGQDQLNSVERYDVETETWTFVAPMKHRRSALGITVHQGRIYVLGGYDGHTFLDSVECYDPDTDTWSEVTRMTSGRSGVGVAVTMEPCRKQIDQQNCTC

[2] = variants of: B1; settings: with keap1_human KEAP1, Q14145; remark: listed apart in the source

effect of a mutation on the interaction [1] | effect of a mutation on the interaction [2] | Variant
disrupting interaction strength |  | E718A;T719A
with no effect | disrupting interaction strength | G710A
disrupting interaction strength | disrupting interaction strength | G710A;E718A;T719A
